According to US20240109974A1 (SHANDONG SIMCERE BIOPHARMACEUTICAL, published 2024):
Residue numbers refer to the chain shown, from its start.

T1: human TNFR2 on the surface of CHO-TNFR2 cells (human, UniProt P20333 23-461)
T1 construct: whole, on cells
T1 sequence (looked up): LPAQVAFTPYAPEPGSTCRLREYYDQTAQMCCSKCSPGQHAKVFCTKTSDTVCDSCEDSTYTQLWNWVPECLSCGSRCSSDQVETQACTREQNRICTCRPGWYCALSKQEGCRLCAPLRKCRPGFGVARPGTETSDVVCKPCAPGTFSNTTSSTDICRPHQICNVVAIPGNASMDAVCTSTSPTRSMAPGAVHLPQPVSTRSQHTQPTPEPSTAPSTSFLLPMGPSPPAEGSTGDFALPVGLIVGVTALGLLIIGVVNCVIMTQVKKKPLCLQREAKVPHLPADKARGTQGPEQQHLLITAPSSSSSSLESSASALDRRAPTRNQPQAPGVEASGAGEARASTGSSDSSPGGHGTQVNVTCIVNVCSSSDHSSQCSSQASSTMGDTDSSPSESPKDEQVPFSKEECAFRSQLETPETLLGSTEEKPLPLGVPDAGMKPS

T2: Human TNFR2-His (Sino 10417-H08H) (human, UniProt P20333 23-257)
T2 construct: Bought protein; also called recombinant human TNFR2 protein; not shown: His tag
T2 sequence (looked up): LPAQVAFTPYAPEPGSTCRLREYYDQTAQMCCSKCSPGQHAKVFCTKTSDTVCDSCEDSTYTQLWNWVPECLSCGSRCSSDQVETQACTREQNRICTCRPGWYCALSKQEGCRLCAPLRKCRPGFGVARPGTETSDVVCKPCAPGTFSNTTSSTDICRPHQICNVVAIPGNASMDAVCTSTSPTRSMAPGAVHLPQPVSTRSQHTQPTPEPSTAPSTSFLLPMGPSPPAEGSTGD

T3: Cynomolgus TNFR2-His (Sino 90102-C08H) (cynomolgus monkey, UniProt A0A2K5VET2 132-366)
T3 construct: Bought protein; also called cynomolgus monkey TNFR2; recombinant cynomolgus monkey TNFR2 protein; not shown: His tag
T3 sequence: T2 sequence (looked up) with S16G, S36P, P117Q, N164H, E210A, S216G, M223V

B1: 224-WT (antibody, V domains shown)
VH: EVQLQESGPEIVKPGASVKLSCTASGFNNKDIYMHWVKQRPEQGLEWIGRIDPATGNTKHDPKFQDKATLSSDTSSNTAYLQFSSLTSEDTAVYYCAHSPYGDFGAMDYWGQGTTVTVSS
VL: DIQMTQSPAIMSASLGERVTMTCTASSSVSSNYLHWYQQKPGSSPKLWIYSTSNLPSGVPARFSGSGSGTSYSLTISSMEAEDAATYYCHQYHRSPWTFGGGTKLEIK
notes: Human-murine chimeric wild-type molecule; also called human-murine chimeric antibody WT of #224
B2: 224-Hu1 (antibody, V domains shown)
VH: QVQLVQSGAEVKKPGASVKVSCKASGFNNKDIYMHWVRQAPGQGLEWIGRIDPATGNTKHDPKFQDRVTMTSDTSTNTVYMELSSLRSEDTAVYYCARSPYGDFGAMDYWGQGTLVTVSS
VL: DIQMTQSPSSLSASVGDRVTITCTASSSVSSNYLHWYQQKPGKAPKLWIYSTSNLPSGVPSRFSGSGSGTDFTLTISSLQPEDFATYYCHQYHRSPWTFGQGTKVEIK
notes: Humanized form of #224; also called VH8 + VL6
B3: 001-WT (antibody, V domains shown)
VH: EVQLQESGGGLVQPGGSLNLSCAASGFAFSTYDLSWVRQTPEKRLEWVAYINNGGISTYYSDTVKGRFTISRDNAKNTLYLQMSSLKSEDTAMYYCVRGPFYGSANYFDYWGQGTTVTVSS
VL: EIVMTQSPASLSLSVGETVTITCRTSESIYSNLPWYQQKQGKSPQLLVYDATKLAEGVPSRFSGSESGTQYSLKINSLQSEDFGTYYCQHFWVTPWTFGGGTKLEIK
notes: Human-murine chimeric wild-type molecule; also called human-murine chimeric antibody WT of #001
B4: 001-Hu5 (antibody, V domains shown)
VH: B3 VH with Q5V, N19R, T40A, E42G, R44G, S84N, K87R, S88A, M93V, T116L
VL: DIQMTQSPSSLSASVGDRVTITCRTSESIYSNLPWYQQKPGKSPKLLVYDATKLAEGVPSRFSGSGSGTDYTLTISSLQPEDFATYYCQHFWVTPWTFGQGTKVEIK
notes: Humanized form of #001; also called VH1 + VL4
B5: 001-Hu3 (antibody, V domains shown)
VH: B3 VH with Q5V, N19R, T40A, E42G, R44G, S84N, K87R, S88A, M93V, T116L
VL: B4 VL with S43A, V48I
notes: Humanized form of #001; also called VH1 + VL3
B6: 001-Hu1 (antibody, V domains shown)
VH: B3 VH with Q5V, N19R, T40A, E42G, R44G, S84N, K87R, S88A, M93V, T116L
VL: B4 VL with S43A, V48L
notes: Humanized form of #001; also called VH1 + VL1
B7: 001-Hu2 (antibody, V domains shown)
VH: EVQLVESGGGLVQPGGSLRLSCAASGFAFSTYDLSWVRQAPGKGLEWVAYINNGGISTYYSDTVKGRFTISRDNAKNSLYLQMNSLRAEDTAVYYCVRGPFYGSANYFDYWGQGTLVTVSS
VL: B4 VL with V48I, Y71F
notes: Humanized form of #001; also called VH2 + VL2
B8: 001-Hu4 (antibody, V domains shown)
VH: B7 VH
VL: B4 VL
notes: Humanized form of #001; also called VH2 + VL4
B9: 219-WT (antibody, V domains shown)
VH: EVQLQESGAELVRPGASVKLSCKASGYSFTNYWMNWVKQRPGQGLEWIGMIHPSDTETRLNQNFKDKATLTVDKSSSTSYMQLSSPTSEDSAVYYCARGEGLGAARSVSMDYWGQGTTVTVSS
VL: DILMTQSPSSLSASLGDRVTISCRASQDISNYLNWYQQKPDGTVKVLIYYTAILHSGVPSRFSGSGSGTDYSLTISNLEQEDIATYFCQQGNTLPWTFGGGTKLEIK
notes: Human-murine chimeric wild-type molecule
B10: 219-Hu3 (antibody, V domains shown)
VH: QVQLVQSGAEVKKPGSSVKVSCKASGYSFTNYWMNWVRQAPGQGLEWMGMIHPSDTETRLNQNFKDRVTITADKSTSTAYMELSSLRSEDTAVYYCARGEGLGAARSVSMDYWGQGTLVTVSS
VL: B9 VL with L3Q, L15V, S22T, V46L, N77S, E79Q, Q80P, I83F, G100Q, L104V
notes: also called VH5 + VL5
B11: 219-Hu4 (antibody, V domains shown)
VH: B10 VH with R38K, M48I, R67K, V68A, I70L, A72V
VL: B9 VL with L3Q, L15V, S22T, V46L, N77S, E79Q, Q80P, I83F, G100Q, L104V
notes: also called VH6 + VL5
B12: 219-Hu1 (antibody, V domains shown)
VH: B10 VH with S16A, G44R, A72R, K74T, T76A
VL: B9 VL with L3Q, L15V, S22T, V46L, N77S, E79Q, Q80P, I83F, G100Q, L104V
notes: also called VH3 + VL5
B13: 219-Hu5 (antibody, V domains shown)
VH: B10 VH with A72V
VL: B9 VL with L3Q, L15V, S22T, V46L, N77S, E79Q, Q80P, I83F, G100Q, L104V
notes: also called VH7 + VL5
B14: 219-Hu2 (antibody, V domains shown)
VH: B10 VH with R67K, V68A
VL: B9 VL with L3Q, L15V, S22T, V46L, N77S, E79Q, Q80P, I83F, G100Q, L104V
notes: also called VH4 + VL5

Biological target: T1, human TNFR2 on the surface of CHO-TNFR2 …
Test: flow cytometry on CHO-TNFR2 cells
Experimental: The transfected full-length plasmid of human TNFR2 was purchased from Sino Biological (Cat #HG10417-UT, NCBI Ref Seq: NM_001066.2). The experiment was conducted at a cell density within 80%. The cell medium was discarded; the cells were rinsed with PBS, and digested with 1 ml trypsin for 2 minutes; the digestion was stopped with a Ham's F12 complete medium containing 10% FBS, and then a cell suspension was made. The cell suspension was counted, and then an appropriate amount of cell suspension was centrifuged at 350×g; the supernatant was discarded; a corresponding volume of blocking solution (10% FBS+PBS) at a density of 1×10⁷ cells/ml was added to resuspend the cells, and the mixture was incubated at 4° C. for 30 minutes. After the incubation, the mixture was centrifuged at 350×g to remove the supernatant, and the cells were resuspended in a staining buffer (2% FBS+PBS) to a density of 2×10⁶ cells/ml, and spread onto a 96-well plate, with 50 μl of cell suspension added to each well for later use. The antibody was diluted with PBS for 10-fold gradient dilution from the highest concentration of 20 μg/m (twice the concentration); the diluted antibody was added to the well containing 50 μl of cell suspension, and placed on a microplate shaker for shaking at 500 rpm for 1 minute, so that the antibody was fully mixed with the cells; the mixture was incubated at 4° C. for 1 h. After the incubation, the cells were washed twice with the staining buffer, with 100 μl per well, and centrifuged at 350-g for 5 minutes, and the supernatant was discarded. The PE goat anti-Human IgG Fc antibody (ebioscience, Cat #12-4998-82) was diluted 250-fold with the staining buffer, with a volume of 100 μl per well added to the washed cell wells; the mixture was mixed evenly, and stained at 4° C. for 30 minutes. After the staining, similarly, the cells were washed twice with the staining buffer; finally, the cells were resuspended in 200 μl of staining buffer; signals were detected by a flow cytometer (Thermo Attune NxT). The stronger the signal, the stronger the binding ability of an antibody to TNFR2. The binding curve of an antibody was drawn with antibody concentration as the abscissa and corresponding mean fluorescence intensity (MFI) fold as the ordinate, and fitted with four parameters (GraphPad Prism9) to calculate the EC50 value.

| EC50 | Binder |
| --- | --- |
| 0.04 ng/mL | B1 |
| 0.04 ng/mL | B2 |
| 0.035 ng/mL | B3 |
| 0.029 ng/mL | B4 |
| 0.035 ng/mL | B5 |
| 0.045 ng/mL | B6 |
| 0.073 ng/mL | B7 |
| 0.027 ng/mL | B8 |
| 0.026 ng/mL | B9 |
| 0.018 ng/mL | B10 |
| 0.018 ng/mL | B11 |
| 0.026 ng/mL | B12 |
| 0.018 ng/mL | B13 |
| 0.027 ng/mL | B14 |

Biological target: T2, Human TNFR2-His (Sino 10417-H08H)
Test: SPR (Biacore T200), antibody captured on Protein A chip
Experimental: (§1) Biacore was used to detect the specific binding of a test anti-TNFR2 antibody to human and cynomolgus monkey TNFR2 proteins. In this experiment, a Protein A chip was used, the time required for the chip to capture the diluted antibody was determined by manual run, so that the Rmax of the saturated binding to an antigen was 50 RU. […] The affinity of an antibody for an antigen was determined by using multi-cycle dynamics. In each cycle, an antibody was injected and then a TNFR2 protein at a gradient concentration was injected, so that the antigen and the antibody underwent binding and dissociation processes. After each cycle, the Protein A chip was regenerated with Glycine pH 1.5 (removing the protein on the chip). The affinity KD of an antibody and an antigen was fitted with BIAcore T200 analysis software.

| Kd | koff | kon | Binder |
| --- | --- | --- | --- |
| 2.33 nM | 0.000405 s⁻¹ | 174000 M⁻¹ s⁻¹ | B1 |
| 6.57 nM | 0.000766 s⁻¹ | 117000 M⁻¹ s⁻¹ | B2 |
| 0.235 nM | 0.000121 s⁻¹ | 512000 M⁻¹ s⁻¹ | B3 |
| 0.416 nM | 0.000115 s⁻¹ | 277000 M⁻¹ s⁻¹ | B4 |
| 0.375 nM | 9.91e-05 s⁻¹ | 265000 M⁻¹ s⁻¹ | B5 |
| 0.371 nM | 0.000108 s⁻¹ | 291000 M⁻¹ s⁻¹ | B6 |
| 0.496 nM | 0.000107 s⁻¹ | 215000 M⁻¹ s⁻¹ | B7 |
| 0.417 nM | 0.000113 s⁻¹ | 270000 M⁻¹ s⁻¹ | B8 |
| 0.554 nM | 0.000192 s⁻¹ | 346000 M⁻¹ s⁻¹ | B9 |
| 0.362 nM | 0.000146 s⁻¹ | 403000 M⁻¹ s⁻¹ | B10 |
| 0.318 nM | 0.000154 s⁻¹ | 484000 M⁻¹ s⁻¹ | B11 |
| 0.354 nM | 0.000153 s⁻¹ | 433000 M⁻¹ s⁻¹ | B12 |
| 0.309 nM | 0.000137 s⁻¹ | 445000 M⁻¹ s⁻¹ | B13 |
| 0.34 nM | 0.000151 s⁻¹ | 443000 M⁻¹ s⁻¹ | B14 |

Biological target: T3, Cynomolgus TNFR2-His (Sino 90102-C08H)
Test: as above
Experimental: as §1

| Kd | koff | kon | Binder |
| --- | --- | --- | --- |
| 0.897 nM | 0.000409 s⁻¹ | 456000 M⁻¹ s⁻¹ | B1 |
| 3.95 nM | 0.000953 s⁻¹ | 241000 M⁻¹ s⁻¹ | B2 |
| 0.252 nM | 0.000154 s⁻¹ | 614000 M⁻¹ s⁻¹ | B3 |
| 0.475 nM | 0.000175 s⁻¹ | 369000 M⁻¹ s⁻¹ | B4 |
| 0.43 nM | 0.000155 s⁻¹ | 361000 M⁻¹ s⁻¹ | B5 |
| 0.47 nM | 0.00016 s⁻¹ | 340000 M⁻¹ s⁻¹ | B6 |
| 0.599 nM | 0.000164 s⁻¹ | 273000 M⁻¹ s⁻¹ | B7 |
| 0.473 nM | 0.000167 s⁻¹ | 354000 M⁻¹ s⁻¹ | B8 |
| 1.14 nM | 0.000562 s⁻¹ | 492000 M⁻¹ s⁻¹ | B9 |
| 0.723 nM | 0.000399 s⁻¹ | 552000 M⁻¹ s⁻¹ | B10 |
| 0.576 nM | 0.000389 s⁻¹ | 675000 M⁻¹ s⁻¹ | B11 |
| 0.532 nM | 0.000332 s⁻¹ | 623000 M⁻¹ s⁻¹ | B12 |
| 0.626 nM | 0.000381 s⁻¹ | 608000 M⁻¹ s⁻¹ | B13 |
| 0.681 nM | 0.000412 s⁻¹ | 605000 M⁻¹ s⁻¹ | B14 |
